Ends that are not written are not given here. * marks the point of attachment. Stearoyl = CCCCCCCCCCCCCCCCCC(=O)*; Palmitoyl = CCCCCCCCCCCCCCCC(=O)*
What was measured:
N39 [1] = target: T1, N39 (HIV-1, N-terminal acetyl (Ac-); C-terminal amide (-NH2)); assay: circular dichroism temperature scan at 220 nm of the 1:1 mixture with N39, 10 µM each in PBS pH 7.2
T1 peptide: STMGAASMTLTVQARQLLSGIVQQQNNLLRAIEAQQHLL

[2] = target: gp41 of the envelope protein (Env) of HIV-1 strain HXB2 (HIV-1 strain HXB2, UniProt P04578 33-856); assay: cell-based or functional assay
[3] = target: gp41 of the envelope protein of HIV-1 strain JRCSF (HIV-1 strain JRCSF); assay: cell-based or functional assay
[4] = target: gp41 of the envelope protein (Env) of the D36G mutant of HIV-1 strain NL4-3 (HIV-1 strain NL4-3); assay: cell-based or functional assay
N39 [5] = target: T1, N39; assay: circular dichroism temperature scan at 220 nm of the 1:1 mixture with N39, 10 µM each in PBS pH 7.2; difference against LP-52
N39 [6] = target: T1, N39; assay: circular dichroism of the 1:1 mixture with N39, 10 µM each in PBS pH 7.2

B1: LP-50 (peptide)
peptide: Ac-YTSLIEELIKKSEEQQKKNEEELKKLEK(Palmitoyl)-NH2
SMILES: CCCCCCCCCCCCCCCC(=O)NCCCC[C@H](NC(=O)[C@H](CCC(=O)O)NC(=O)[C@H](CC(C)C)NC(=O)[C@H](CCCCN)NC(=O)[C@H](CCCCN)NC(=O)[C@H](CC(C)C)NC(=O)[C@H](CCC(=O)O)NC(=O)[C@H](CCC(=O)O)NC(=O)[C@H](CCC(=O)O)NC(=O)[C@H](CC(N)=O)NC(=O)[C@H](CCCCN)NC(=O)[C@H](CCCCN)NC(=O)[C@H](CCC(N)=O)NC(=O)[C@H](CCC(N)=O)NC(=O)[C@H](CCC(=O)O)NC(=O)[C@H](CCC(=O)O)NC(=O)[C@H](CO)NC(=O)[C@H](CCCCN)NC(=O)[C@H](CCCCN)NC(=O)[C@@H](NC(=O)[C@H](CC(C)C)NC(=O)[C@H](CCC(=O)O)NC(=O)[C@H](CCC(=O)O)NC(=O)[C@@H](NC(=O)[C@H](CC(C)C)NC(=O)[C@H](CO)NC(=O)[C@@H](NC(=O)[C@H](Cc1ccc(O)cc1)NC(C)=O)[C@@H](C)O)[C@@H](C)CC)[C@@H](C)CC)C(N)=O
notes: LP-40 with EE**KK ion pairs introduced; also called P50 with C16
Tm value of the complex (N39 [1]): 63.3 °C | IC50 for inhibiting cell fusion (HXB2-cell fusion) [2]: 21 pM | IC50 for inhibiting replicative virus (replication of JRCSF) [3]: 23 pM | IC50 for inhibiting pseudovirus (entry of NL4-3) [4]: 7 pM

Ac-WEQKIEELLKKAEEQQKKNEEELKKLEK(Stearoyl)-NH2 [LP-80]
Tm value of the complex (N39 [1]): 79 °C | IC50 for inhibiting HIV-1 strain JRCSF [3]: 2 pM | IC50 for inhibiting HIV-1 strain NL4-3 [4]: 2 pM

B2: LP-69 (peptide)
peptide: Ac-IEELLKKAEEQQKKNEEELKK(Palmitoyl)-NH2
SMILES: CCCCCCCCCCCCCCCC(=O)NCCCC[C@H](NC(=O)[C@H](CCCCN)NC(=O)[C@H](CC(C)C)NC(=O)[C@H](CCC(=O)O)NC(=O)[C@H](CCC(=O)O)NC(=O)[C@H](CCC(=O)O)NC(=O)[C@H](CC(N)=O)NC(=O)[C@H](CCCCN)NC(=O)[C@H](CCCCN)NC(=O)[C@H](CCC(N)=O)NC(=O)[C@H](CCC(N)=O)NC(=O)[C@H](CCC(=O)O)NC(=O)[C@H](CCC(=O)O)NC(=O)[C@H](C)NC(=O)[C@H](CCCCN)NC(=O)[C@H](CCCCN)NC(=O)[C@H](CC(C)C)NC(=O)[C@H](CC(C)C)NC(=O)[C@H](CCC(=O)O)NC(=O)[C@H](CCC(=O)O)NC(=O)[C@@H](NC(C)=O)[C@@H](C)CC)C(N)=O
notes: Residues 1-21 follow from the statement that LP-69 is LP-65 (24 residues) without its C-terminal LEK
Tm value of the complex (N39 [1]): 51 °C | Tm value lower than that of the LP-52 by (N39 [5]): 28.1 °C

Ac-YTSLIHSLIEESQNQQEKNEQELLELDK (not fully specified (residue 28, C-terminus), also called T-20-based lipopeptide) [LP-40]
Tm value of the complex (N39 [1]): 51.3 °C | helix content of the complex (N39 [6]): 57.7%

From patent US20210277068A1 (SHANXI KANGBAO BIOLOGICAL PRODUCT, published 2021)
